Sequences and labels used below:
B1: "D(4) dopamine receptor" (Mus musculus), P51436 (parent)
chain: MGNSSATEDGGLLAGRGPESLGTGAGLGGAGAAALVGGVLLIGLVLAGNSLVCVSVASERTLQTPTNYFIVSLAAADLLLAVLVLPLFVYSEVQGGVWLLSPRLCDTLMAMDVMLCTASIFNLCAISVDRFVAVTVPLRYNQQGQCQLLLIAATWLLSAAVASPVVCGLNDVPGRDPAVCCLENRDYVVYSSVCSFFLPCPLMLLLYWATFRGLRRWEAARHTKLHSRAPRRPSGPGPPVSDPTQGPFFPDCPPPLPSLRTSPSDSSRPESELSQRPCSPGCLLADAALPQPPEPSSRRRRGAKITGRERKAMRVLPVVVGAFLVCWTPFFVVHITRALCPACFVSPRLVSAVTWLGYVNSALNPIIYTIFNAEFRSVFRKTLRLRC
B2: Muscarinic acetylcholine receptor M4 (Homo sapiens), P08173 (parent)
chain: MANFTPVNGSSGNQSVRLVTSSSHNRYETVEMVFIATVTGSLSLVTVVGNILVMLSIKVNRQLQTVNNYFLFSLACADLIIGAFSMNLYTVYIIKGYWPLGAVVCDLWLALDYVVSNASVMNLLIISFDRYFCVTKPLTYPARRTTKMAGLMIAAAWVLSFVLWAPAILFWQFVVGKRTVPDNQCFIQFLSNPAVTFGTAIAAFYLPVVIMTVLYIHISLASRSRVHKHRPEGPKEKKAKTLAFLKSPLMKQSVKKPPPGEAAREELRNGKLEEAPPPALPPPPRPVADKDTSNESSSGSATQNTKERPATELSTTEATTPAMPAPPLQPRALNPASRWSKIQIVTKQTGNECVTAIEIVPATPAGMRPAANVARKFASIARNQVRKKRQMAARERKVTRTIFAILLAFILTWTPYNVMVLVNTFCQSCIPDTVWSIGYWLCYVNSTINPACYALCNATFKKTFRHLLLCQYRNIGTAR
B3: "D(3) dopamine receptor" (Homo sapiens), P35462-1 (parent)
chain: MASLSQLSGHLNYTCGAENSTGASQARPHAYYALSYCALILAIVFGNGLVCMAVLKERALQTTTNYLVVSLAVADLLVATLVMPWVVYLEVTGGVWNFSRICCDVFVTLDVMMCTASILNLCAISIDRYTAVVMPVHYQHGTGQSSCRRVALMITAVWVLAFAVSCPLLFGFNTTGDPTVCSISNPDFVIYSSVVSFYLPFGVTVLVYARIYVVLKQRRRKRILTRQNSQCNSVRPGFPQQTLSPDPAHLELKRYYSICQDTALGGPGFQERGGELKREEKTRNSLSPTIAPKLSLEVRKLSNGRLSTSLKLGPLQPRGVPLREKKATQMVAIVLGAFIVCWLPFFLTHVLNTHCQTCHVSPELYSATTWLGYVNSALNPVIYTTFNIEFRKAFLKILSC

Variants of B1 are the subject of the first experiment. As to conditions: with SH3GL1, Q99961-1.
Target sequence in this assay (Q99961 whole entry): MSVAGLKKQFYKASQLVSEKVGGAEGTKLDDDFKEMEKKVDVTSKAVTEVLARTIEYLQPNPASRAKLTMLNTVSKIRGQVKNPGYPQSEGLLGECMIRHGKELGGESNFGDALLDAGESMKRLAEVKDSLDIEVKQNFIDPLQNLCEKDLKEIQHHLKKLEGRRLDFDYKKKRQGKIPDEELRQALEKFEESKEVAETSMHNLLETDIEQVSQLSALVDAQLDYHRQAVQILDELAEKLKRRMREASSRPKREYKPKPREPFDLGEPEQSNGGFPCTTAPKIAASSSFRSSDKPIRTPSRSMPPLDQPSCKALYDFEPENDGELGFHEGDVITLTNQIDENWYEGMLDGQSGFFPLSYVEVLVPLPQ
With P230A;P233A, the “effect of a mutation on the interaction” value was “decreasing interaction strength”. For R231D;R232E, the “effect of a mutation on the interaction” value was “disrupting interaction strength”.

A further experiment covers variants of B2. As to conditions: with SH3GL1, Q99961-1.
Target sequence in this assay (Q99961 whole entry): as above
For the variant P330E, the “effect of a mutation on the interaction” value is listed as “decreasing interaction strength”. As for R230E, the “effect of a mutation on the interaction” value is “decreasing interaction strength”. K255E;K256E: the “effect of a mutation on the interaction” value is reported as “decreasing interaction strength”.

A further experiment covers variants of B3. As to conditions: with SH3GL1, Q99961-1.
Target sequence in this assay (Q99961 whole entry): as above
As for R318E, the “effect of a mutation on the interaction” value is listed as “decreasing interaction strength”. In the case of K293E, the “effect of a mutation on the interaction” value is recorded as “decreasing interaction strength”.

The values above are taken from IntAct's records for PubMed 25517094.
